Experimental data reported in patent publication US20250154231A1.
Where two headings read alike, the source gives them in different places.

Legend:
Test in all cases: cell-based or functional assay
[1] = target: SARS-CoV-2 spike (S) protein, Omicron BA.1 (SARS-CoV-2) (UniProt P0DTC2)
[2] = target: SARS-CoV-2 spike (S) protein, Omicron BA.1.1 (SARS-CoV-2) (UniProt P0DTC2)
[3] = target: SARS-CoV-2 spike (S) protein, Omicron BA.2 (SARS-CoV-2) (UniProt P0DTC2)
[4] = target: SARS-CoV-2 spike (S) protein, Omicron BA.3 (SARS-CoV-2) (UniProt P0DTC2)
[5] = target: SARS-CoV-2 spike (S) protein, Omicron BA.4.6 (SARS-CoV-2) (UniProt P0DTC2)
[6] = target: SARS-CoV-2 spike (S) protein, Omicron BA.4/5 (SARS-CoV-2) (UniProt P0DTC2)
[7] = target: SARS-CoV-2 spike (S) protein, Victoria strain (SARS-CoV-2) (UniProt P0DTC2)
[8] = target: SARS-CoV-2 spike (S) protein, Omicron BA.2.75 (SARS-CoV-2) (UniProt P0DTC2)
[9] = target: SARS-CoV-2 spike (S) protein, Omicron BA.2 (SARS-CoV-2) (UniProt P0DTC2); remark: listed apart in the source
[10] = target: SARS-CoV-2 spike (S) protein, Omicron BA.2.3.20 (SARS-CoV-2) (UniProt P0DTC2)
[11] = target: SARS-CoV-2 spike (S) protein, Omicron BA.2.75 (SARS-CoV-2) (UniProt P0DTC2); remark: listed apart in the source
[12] = target: SARS-CoV-2 spike (S) protein, Omicron BA.2.75.2 (SARS-CoV-2) (UniProt P0DTC2)
[13] = target: SARS-CoV-2 spike (S) protein, Omicron BA.4.6 (SARS-CoV-2) (UniProt P0DTC2); remark: listed apart in the source
[14] = target: SARS-CoV-2 spike (S) protein, Omicron BA.4/5 (SARS-CoV-2) (UniProt P0DTC2); remark: listed apart in the source
[15] = target: SARS-CoV-2 spike (S) protein, Omicron BJ.1 (SARS-CoV-2) (UniProt P0DTC2)
[16] = target: SARS-CoV-2 spike (S) protein, Victoria strain (SARS-CoV-2) (UniProt P0DTC2); remark: listed apart in the source
[17] = target: SARS-CoV-2 Alpha spike (S) protein (SARS-CoV-2) (UniProt P0DTC2)
[18] = target: SARS-CoV-2 Beta spike (S) protein (SARS-CoV-2) (UniProt P0DTC2)
[19] = target: SARS-CoV-2 Delta spike (S) protein (SARS-CoV-2) (UniProt P0DTC2)
[20] = target: SARS-CoV-2 Gamma spike (S) protein (SARS-CoV-2) (UniProt P0DTC2)
[21] = target: SARS-CoV-2 Omicron BA.1 spike (S) protein of the live isolate (SARS-CoV-2) (UniProt P0DTC2)
[22] = target: SARS-CoV-2 Omicron BA.1.1 spike (S) protein (SARS-CoV-2) (UniProt P0DTC2)
[23] = target: SARS-CoV-2 Omicron BA.2 spike (S) protein (SARS-CoV-2) (UniProt P0DTC2)
[24] = target: SARS-CoV-2 Victoria spike (S) protein (SARS-CoV-2) (UniProt P0DTC2)

For Ly-CoV555 (antibody), the IC50, pseudoviral neutralization [1] was greater than 10 µg/mL, the pseudovirus neutralisation IC50 [1] was greater than 10 µg/mL and the IC50, pseudoviral neutralization [2] was greater than 10 µg/mL. It also gave a pseudovirus neutralisation IC50 [2] greater than 10 µg/mL, an IC50, pseudoviral neutralization [3] greater than 10 µg/mL and a pseudovirus neutralisation IC50 [3] greater than 10 µg/mL. For the same substance, the IC50, pseudoviral neutralization [4] was greater than 10 µg/mL, the pseudovirus neutralisation IC50 [4] was greater than 10 µg/mL and the IC50, pseudoviral neutralization [5] was greater than 10 µg/mL. For the same substance, the IC50, pseudoviral neutralization [6] was greater than 10 µg/mL, the pseudovirus neutralisation IC50 [6] was greater than 10 µg/mL and the IC50, pseudoviral neutralization [7] was 0.002 µg/mL. It also gave a pseudovirus neutralisation IC50 [7] of 0.002 µg/mL, a pseudovirus neutralisation IC50 [8] greater than 10 µg/mL and an IC50, pseudoviral neutralization [9] greater than 10 µg/mL. It also gave an IC50, pseudoviral neutralization [10] greater than 10 µg/mL, an IC50, pseudoviral neutralization [11] greater than 10 µg/mL and an IC50, pseudoviral neutralization [12] greater than 10 µg/mL. It also gave an IC50, pseudoviral neutralization [13] greater than 10 µg/mL, an IC50, pseudoviral neutralization [14] greater than 10 µg/mL and an IC50, pseudoviral neutralization [15] greater than 10 µg/mL. It also gave an IC50, pseudoviral neutralization [16] of 0.002 µg/mL.
Work on ADG30 (antibody) yielded an IC50, authentic virus neutralization [17] of 0.016 µg/mL, an IC50, authentic virus neutralization [18] of 0.029 µg/mL and an IC50, authentic virus neutralization [19] of 0.033 µg/mL. For the same substance, the IC50, authentic virus neutralization [20] was 0.002 µg/mL, the IC50, authentic virus neutralization [21] was greater than 10 µg/mL and the IC50, authentic virus neutralization [22] was greater than 10 µg/mL. The IC50, authentic virus neutralization [23] was greater than 10 µg/mL, the IC50, authentic virus neutralization [24] was 0.007 µg/mL and the IC50, pseudoviral neutralization [1] was greater than 10 µg/mL. It also gave a pseudovirus neutralisation IC50 [1] greater than 10 µg/mL, an IC50, pseudoviral neutralization [2] greater than 10 µg/mL and a pseudovirus neutralisation IC50 [2] greater than 10 µg/mL. The IC50, pseudoviral neutralization [3] was greater than 10 µg/mL, the pseudovirus neutralisation IC50 [3] was greater than 10 µg/mL and the IC50, pseudoviral neutralization [4] was greater than 10 µg/mL. The pseudovirus neutralisation IC50 [4] was greater than 10 µg/mL, the IC50, pseudoviral neutralization [5] was greater than 10 µg/mL and the IC50, pseudoviral neutralization [6] was greater than 10 µg/mL. It also gave a pseudovirus neutralisation IC50 [6] greater than 10 µg/mL, an IC50, pseudoviral neutralization [7] of 0.014 µg/mL and a pseudovirus neutralisation IC50 [7] of 0.014 µg/mL. It also gave a pseudovirus neutralisation IC50 [8] greater than 10 µg/mL.
In the case of Ly-CoV16 (antibody), the IC50, authentic virus neutralization [17] is reported as 3.23 µg/mL, the IC50, authentic virus neutralization [18] is reported as greater than 10 µg/mL and the IC50, authentic virus neutralization [19] is reported as 0.012 µg/mL. For the same substance, the IC50, authentic virus neutralization [20] was greater than 10 µg/mL, the IC50, authentic virus neutralization [21] was greater than 10 µg/mL and the IC50, authentic virus neutralization [22] was greater than 10 µg/mL. The IC50, authentic virus neutralization [23] was greater than 10 µg/mL, the IC50, authentic virus neutralization [24] was 0.034 µg/mL and the IC50, pseudoviral neutralization [1] was greater than 10 µg/mL. For the same substance, the pseudovirus neutralisation IC50 [1] was greater than 10 µg/mL, the IC50, pseudoviral neutralization [2] was greater than 10 µg/mL and the pseudovirus neutralisation IC50 [2] was greater than 10 µg/mL. It also gave an IC50, pseudoviral neutralization [3] greater than 10 µg/mL, a pseudovirus neutralisation IC50 [3] greater than 10 µg/mL and an IC50, pseudoviral neutralization [4] greater than 10 µg/mL. It also gave a pseudovirus neutralisation IC50 [4] greater than 10 µg/mL, an IC50, pseudoviral neutralization [5] greater than 10 µg/mL and an IC50, pseudoviral neutralization [6] greater than 10 µg/mL. It also gave a pseudovirus neutralisation IC50 [6] greater than 10 µg/mL, an IC50, pseudoviral neutralization [7] of 0.014 µg/mL and a pseudovirus neutralisation IC50 [7] of 0.014 µg/mL. The pseudovirus neutralisation IC50 [8] was greater than 10 µg/mL, the IC50, pseudoviral neutralization [10] was greater than 10 µg/mL and the IC50, pseudoviral neutralization [11] was greater than 10 µg/mL. For the same substance, the IC50, pseudoviral neutralization [12] was greater than 10 µg/mL, the IC50, pseudoviral neutralization [13] was greater than 10 µg/mL and the IC50, pseudoviral neutralization [14] was greater than 10 µg/mL. For the same substance, the IC50, pseudoviral neutralization [15] was greater than 10 µg/mL and the IC50, pseudoviral neutralization [16] was 0.014 µg/mL.
ADG20 (antibody) gave an IC50, authentic virus neutralization [17] of 0.006 µg/mL, an IC50, authentic virus neutralization [18] of 0.01 µg/mL and an IC50, authentic virus neutralization [19] of 0.006 µg/mL. It also gave an IC50, authentic virus neutralization [20] of 0.009 µg/mL, an IC50, authentic virus neutralization [21] of 1.1 µg/mL and an IC50, authentic virus neutralization [22] of 1.27 µg/mL. It also gave an IC50, authentic virus neutralization [23] greater than 10 µg/mL, an IC50, authentic virus neutralization [24] of 0.004 µg/mL and an IC50, pseudoviral neutralization [1] of 0.348 µg/mL. For the same substance, the pseudovirus neutralisation IC50 [1] was 0.348 µg/mL, the IC50, pseudoviral neutralization [2] was 0.253 µg/mL and the pseudovirus neutralisation IC50 [2] was 0.253 µg/mL. The IC50, pseudoviral neutralization [3] was greater than 10 µg/mL, the pseudovirus neutralisation IC50 [3] was greater than 10 µg/mL and the IC50, pseudoviral neutralization [4] was greater than 10 µg/mL. It also gave a pseudovirus neutralisation IC50 [4] greater than 10 µg/mL, an IC50, pseudoviral neutralization [5] greater than 10 µg/mL and an IC50, pseudoviral neutralization [6] greater than 10 µg/mL. For the same substance, the pseudovirus neutralisation IC50 [6] was greater than 10 µg/mL, the IC50, pseudoviral neutralization [7] was 0.003 µg/mL and the pseudovirus neutralisation IC50 [7] was 0.003 µg/mL. For the same substance, the pseudovirus neutralisation IC50 [8] was greater than 10 µg/mL, the IC50, pseudoviral neutralization [9] was greater than 10 µg/mL and the IC50, pseudoviral neutralization [10] was greater than 10 µg/mL. The IC50, pseudoviral neutralization [11] was greater than 10 µg/mL, the IC50, pseudoviral neutralization [12] was greater than 10 µg/mL and the IC50, pseudoviral neutralization [13] was greater than 10 µg/mL. The IC50, pseudoviral neutralization [14] was greater than 10 µg/mL and the IC50, pseudoviral neutralization [15] was greater than 10 µg/mL.
AZD1061 (antibody) gave an IC50, authentic virus neutralization [17] of 0.012 µg/mL, an IC50, authentic virus neutralization [18] of 0.014 µg/mL and an IC50, authentic virus neutralization [19] of 0.038 µg/mL. It also gave an IC50, authentic virus neutralization [20] of 0.007 µg/mL, an IC50, authentic virus neutralization [21] of 3.49 µg/mL and an IC50, authentic virus neutralization [22] greater than 10 µg/mL. The IC50, authentic virus neutralization [23] was 0.028 µg/mL, the IC50, authentic virus neutralization [24] was 0.013 µg/mL and the IC50, pseudoviral neutralization [1] was 0.308 µg/mL. For the same substance, the pseudovirus neutralisation IC50 [1] was 0.308 µg/mL, the IC50, pseudoviral neutralization [2] was greater than 10 µg/mL and the pseudovirus neutralisation IC50 [2] was greater than 10 µg/mL. For the same substance, the IC50, pseudoviral neutralization [3] was 0.008 µg/mL, the pseudovirus neutralisation IC50 [3] was 0.008 µg/mL and the IC50, pseudoviral neutralization [4] was 0.019 µg/mL. It also gave a pseudovirus neutralisation IC50 [4] of 0.019 µg/mL, an IC50, pseudoviral neutralization [5] greater than 10 µg/mL and an IC50, pseudoviral neutralization [6] of 0.015 µg/mL. It also gave a pseudovirus neutralisation IC50 [6] of 0.015 µg/mL, an IC50, pseudoviral neutralization [7] of 0.002 µg/mL and a pseudovirus neutralisation IC50 [7] of 0.002 µg/mL. The pseudovirus neutralisation IC50 [8] was 0.021 µg/mL, the IC50, pseudoviral neutralization [9] was 0.008 µg/mL and the IC50, pseudoviral neutralization [10] was greater than 10 µg/mL. For the same substance, the IC50, pseudoviral neutralization [11] was 0.021 µg/mL, the IC50, pseudoviral neutralization [12] was greater than 10 µg/mL and the IC50, pseudoviral neutralization [13] was greater than 10 µg/mL. The IC50, pseudoviral neutralization [14] was 0.015 µg/mL, the IC50, pseudoviral neutralization [15] was greater than 10 µg/mL and the IC50, pseudoviral neutralization [16] was 0.002 µg/mL.
